Assay: yeast display, Sf9 membrane polyspecificity reagent, FACS + sequencing; frameworks hold sequencing errors
In short: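 Galactose-induced (36–48 hours) yeast carrying a synthetic nanobody display library were exposed to 10% biotinylated, detergent-solubilized Sf9 membrane reagent at 4 °C for 1 hour. FACS followed streptavidin microbead enrichment, using low and high (top ~1%) gates for expression (anti-HA) and reagent binding (streptavidin). Colony PCR, MiSeq 2 × 250 sequencing and CDR-length filtering followed. Labels for polyreactivity reflect the gate of origin.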

Sequence | polyreactivity (PSR sort gate)
QVQLVESGGGLVHAGGSLRLSCAASGRIFERYAMGWYRQAPGKERELVAAISVSGSGTYYADSVKGRFTISRDNAKNTVYLQMNSLKPEDTAVYYCAADASLLGLFQGYDYWGQGTQVTVSS | low polyreactivity
QVQLVESGGGLVHAGGSLRLSCAASGRIFFDYTMGWYRQAPGKERELVAAIRTRGDSTYYADSVKGRFTISRDNAKNTFYLQMNSLKPEDTAVYYCAAAVYVRGRRESWGQGTQVTVSS | high polyreactivity
QVQLVESGGGLVHAGGSLRLSCAASGRIFHFNAMGWYRPAPGIERELVATITKRGGRTYYADSVKGRFTISRDNAKNTVYLQMNSLKPEDTAVYYCNADQSRYSAVSGYDYWGQGTQVTVSS | high polyreactivity
QVQLVESGGGLVHAGGSLRLSCAASGRIFRWYAMGWYRQAPGKERELVAAISSRGGSTYYADSVKGRFTISRDNAKNTVYLQMNSLKPEDTAVYYCAADTSGWQPRYDYWGQGTQVTVSS | high polyreactivity
QVQLVESGGGLVHAGGSLRLSCAASGRIFTYNAMGWYRQAPGKERELVAAISTGGSTNYADSVKGRFTISRDNAKNTVYLQMNSLKPEDTAVYYCARRWWPTYDYWGQGTQVTVSS | high polyreactivity
QVQLVESGGGLVHAGGSLRLSCAASGRIFVGYTMGGYRQGPGKERELVAAISWDGDITYYADSVKGRFTISRDKAKNTVYLQMNSLKPEDTAVYYCAVDLPVSESHHTLTFELDYWGQGSQVTVSS | low polyreactivity
QVQLVESGGGLVHAGGSLRLSCAASGRIFVGYYAMGWYRQAPGKERELVAAITIGGRTYYADSVKGRFTISRDNAKKTVYLQMKSLKPEDTAVYYCAASKYSRAYQEFGYWGQGTQVTVSS | high polyreactivity
QVQLVESGGGLVHAGGSLRLSCAASGRTFAPYTMGWYRPAPGKERELVASISTGGSTYYADSVKGRFTISRYNAKNTVYLQMNSLKPEDTAVYYCAATGWAYGYGYGYWGQGTQVTVSS | low polyreactivity
QVQLVESGGGLVHAGGSLRLSCAASGRTFNYYAMGWYRQAPGKERELVAAISKSTGNTYYADSVKGRFTISRDNAKNTVYLQMNSLKPEDTAVYYCAAKKRGSHVYQYDYCGQGTQVTVSS | low polyreactivity
QVQLVESGGGLVHAGGSLRLSCAASGRTQPYNAMGWYRQAPGKERELVAAISKRGSSTYYADSVKGRFTISRDNAKNTVYLQMNSLKPEDTAVYYCATPGPAVHGTRGEYDYWGQGTQVTVSS | high polyreactivity
QVQLVESGGGLVHAGGSLRLSCAASGSIFGANVMGWYRQAPGKERELVAAITRSGTRTYYADSVKGRFTISRDNAKNTVYLQMNSLKPEDTAVYYCAAVLRLSTLTTDFGYWGQGTQVTVSS | high polyreactivity
QVQLVESGGGLVHAGGSLRLSCAASGSIFGFNAMGWYRPAPGKERELVAAISSGSTYYADSVKGRYTISRDNAKTTVYLQMNSLKPEDTAVYYCAATTGYSWYGYWGQGTQVTVSS | low polyreactivity
QVQLVESGGGLVHAGGSLRLSCAASGSIFQGYAMGRYRQAPGKERDLVAAITASGGSTYYADSVKGRFTISRDNAKNTVYLQMNSLKPEDTAVYYCATDSYWRQDLYRYEYWGQGTQVTVSA | high polyreactivity
QVQLVESGGGLVHAGGSLRLSCAASGSIFTFYTMGWYRQAPGKERELVAAINWSGSRTYYADSVKGRFTISRDNAKNTVYLQMNSLKPEDTAVYYCAAYYYTGPTTVESDYWGQGTQVTVSS | high polyreactivity
QVQLVESGGGLVHAGGSLRLSCAASGSIFTIYAMGWYRQAPGKERELVAAISDRGTRTYYADSVKGRFTISRDNAKNTVYLQMNSLKPEDTAVYYCATDALYTYGYDYWGQGTQVTVSS | low polyreactivity
QVQLVESGGGLVHAGGSLRLSCAASGSIFTKYVMGWYRQAPGKERELVAAITYSGGNTYYADSVKGRFTISRDNAKNTVYFQMNSLKPEDTAVYYCAAKSSAHRGGYWGQGTQVTVSS | high polyreactivity

Sequence | polyreactivity (PSR sort gate)
QVQLVESGGGLVHAGGSLRLSCAASGSIFWYYTMGSYRQAPGKERELVATIRWRSGSTYYADSVKGRYTISRDNAKNTVYLQMNTQKPEDTAVYYCAADLYSAVYFSRWSDYWGQGTQVTVSS | high polyreactivity
QVQLVESGGGLVHAGGSLRLSCAASGSIFYSNVMGWYRQAPGKERELVAAITRGGGTNYADSVKGRFTISRDNAKNTVYLQMNSLKPEDTAVYYCNRDPQKYRWIPRYDYWGQGTQVTVSS | low polyreactivity
QVQLVESGGGLVHAGGSLRLSCAASGSTFGANAMGWYRQAPGKEREFVAAISGSGTTTYYADSVKGRFTISRDNAKNSVYLQMNSLKPEDTAVYYCAKTRKGHWLEYWGQGTQVTVSS | low polyreactivity
QVQLVESGGGLVHAGGSLRLSCAASGSTFNYYAMGWYRQAPGKERELVAAIDWSGGSTYYADSVKGRFTISRDNAKNTVYLQMNSLKPEDTAVYYCAARTYDYSYRSYDYWGQGTQVTVSS | low polyreactivity
QVQLVESGGGLVHAGGSLRLSCAASGSTLAGYAMGWYRQAPGKERELVAAIDWTGGSTTYSDSVKGRFTISRDNAKNTVYLQMNSLKPEDTAVYFCHVDLGVNGDYWGQGTQVTVSS | low polyreactivity
QVQLVESGGGLVHAGGSLRLSCAASRSTFALNAMGWYRPAPGKERELVAAISRRGGSTYYADSVKGRFTISRDNAKNSVYLQMNSLKPEDTAVYYCAARYKRFTRFDYWGQGTQVTVSS | high polyreactivity
QVQLVESGGGLVHAGGSLRLSCAPSGSIFTPYAMGWYRQAPAKDRELVADNTYRGGSTYYADSVKGRFTISRDNAKNSVYLQINSLKAEDSAVYYCNADVFTDYRHTRDDYWGQGTQVTVSS | low polyreactivity
QVQLVESGGGLVHAGGSLRLSCASSGIIFDYYAMAWYRQAPGKERELVASITGTTGSTYYADSVKGRFTISRDNAKINVYLQMNSLKPEDTAVYYCNVDTPYGGLVTMDYWGQGTQVTVSS | low polyreactivity
QVQLVESGGGLVHAGGSLRLSCSPSVSIFNTYAMGWYRQAPGKERELVAGITKTGSPTYYADSVKGRFTISRDIAKNTFYLQMNSLKPEDTAVYYCNARIWPRSYRYDYWGQGTQVTVSS | high polyreactivity
QVQLVESGGGLVHAGGSLSLSCAASGSIFPGYAMGWYRQAPGKERELVAGITWSDARTYYADSVKGRFTISRDNAKNTVYLQMNSLKPEDTAVYYCAADYYYYERDYWGKGTQVTVSS | low polyreactivity
QVQLVESGGGLVHDGGSLRLSCAASGSILWPYAMGLYRQAPGKERELVAAISTGGSTYYADSVKGRFTISRDNANNTVYLQRNSLKPEDTAVYYCAAFVDYSVYFGGGYWGQGTQVTVSS | low polyreactivity
QVQLVESGGGLVHPGGSLRLSCAASGIIFGRYTMGWYRQAPGKERELVAAITSSGITYYADSVKGRFTISRDNAKNTVYLQMNSLKPEDTAVYYCNADYSIPGYYWPYDYWGQGTQVTVSS | low polyreactivity
QVQLVESGGGLVHPGGSLRLSCAASGSTFGCNAMGWYRQAPGKERELVSAITFSGGTTYYADSVKGRFTISRDNAKNTVYLQMNSLKPEDTAVYYCNAEWWYQYTGPFAPRGEDYLGQGTQVTVSS | low polyreactivity
QVQLVESGGGLVKAGCSLRLSCAASGRIFIVNAMGWYRQAPGKERELVAAISGSGGRTYYADSVKGRFTNSRDNAKNTVYLQMNSLKPEVTAVYYCAAVLRTQPRRYDYWGQGTQVTVSS | high polyreactivity
QVQLVESGGGLVKAGGSLRISCAASGSIFGPNGKGLYRQAPGKERELVSAISWNGGSTYYADSVKGRFTISRDNAKNTVYLQMNSLKPEDTAVYYCNAVQYYEFDYWGHGTQVTVSS | low polyreactivity
QVQLVESGGGLVKAGGSLRLSCAASGFIFGYNDMGGYRQAPGKERELVAAITSRGDRTYYADSVKGRFTISRDNAKNTVYLQMNSLKPEDTAVYYCAAESQAYSLYWGQGTQLTVSS | high polyreactivity

From the nanobody polyreactivity screen of Harvey et al. (2022)
